Data as given in US20220242962A1 (APTEVO RESEARCH AND DEVELOPMENT, published 2022).

T1: Fc gamma receptor RIIA R167 (human, UniProt P12318 36-218)
T1 construct: soluble SPR analyte
T1 sequence (looked up): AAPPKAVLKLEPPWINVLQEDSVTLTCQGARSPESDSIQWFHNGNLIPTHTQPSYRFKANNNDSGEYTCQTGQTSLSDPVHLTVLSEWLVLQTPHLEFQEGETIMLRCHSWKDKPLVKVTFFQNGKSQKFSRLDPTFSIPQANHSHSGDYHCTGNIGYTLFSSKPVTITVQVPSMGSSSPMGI

T2: Fc gamma receptor RIIB/C (human, UniProt P31994 46-217)
T2 construct: soluble SPR analyte
T2 sequence (looked up): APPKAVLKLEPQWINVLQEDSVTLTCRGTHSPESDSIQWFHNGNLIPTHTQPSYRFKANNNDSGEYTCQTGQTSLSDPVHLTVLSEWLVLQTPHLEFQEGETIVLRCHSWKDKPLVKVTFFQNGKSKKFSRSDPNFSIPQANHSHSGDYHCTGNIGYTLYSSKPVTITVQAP

T3: Fc gamma receptor RIIA H167 (human, UniProt P12318 36-218)
T3 construct: soluble SPR analyte
T3 sequence (looked up): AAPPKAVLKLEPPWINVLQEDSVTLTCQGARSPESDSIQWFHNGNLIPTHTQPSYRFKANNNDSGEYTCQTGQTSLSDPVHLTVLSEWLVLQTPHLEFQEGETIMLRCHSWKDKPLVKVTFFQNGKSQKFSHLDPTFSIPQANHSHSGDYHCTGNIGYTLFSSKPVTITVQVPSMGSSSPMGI

T4: Full-length Human OX40 (human, UniProt P43489 29-277)
T4 sequence: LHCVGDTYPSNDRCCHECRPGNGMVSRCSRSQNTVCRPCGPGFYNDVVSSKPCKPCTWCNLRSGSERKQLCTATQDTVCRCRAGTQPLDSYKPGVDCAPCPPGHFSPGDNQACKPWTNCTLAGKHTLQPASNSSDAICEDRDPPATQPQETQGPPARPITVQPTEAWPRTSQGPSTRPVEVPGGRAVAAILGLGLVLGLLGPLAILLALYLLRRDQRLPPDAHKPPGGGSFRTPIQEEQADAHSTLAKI

T5: Full-length Cyno 4-1BB (cynomolgus monkey, UniProt Q07011 24-255 (human entry))
T5 construct: on Jurkat or CHO cells; also called FOB006; cynomolgus 4-1BB
T5 chain: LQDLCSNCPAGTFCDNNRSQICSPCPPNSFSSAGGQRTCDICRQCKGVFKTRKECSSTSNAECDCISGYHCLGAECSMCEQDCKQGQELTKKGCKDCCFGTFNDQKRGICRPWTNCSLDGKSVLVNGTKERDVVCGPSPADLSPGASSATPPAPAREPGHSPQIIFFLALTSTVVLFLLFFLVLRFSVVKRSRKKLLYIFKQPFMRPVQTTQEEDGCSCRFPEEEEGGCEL

T6: Full-length Cyno OX40 (cynomolgus monkey, UniProt P43489 29-277 (human entry))
T6 construct: on CHO-K1SV cells; also called OXF004; cynomolgus OX40
T6 chain: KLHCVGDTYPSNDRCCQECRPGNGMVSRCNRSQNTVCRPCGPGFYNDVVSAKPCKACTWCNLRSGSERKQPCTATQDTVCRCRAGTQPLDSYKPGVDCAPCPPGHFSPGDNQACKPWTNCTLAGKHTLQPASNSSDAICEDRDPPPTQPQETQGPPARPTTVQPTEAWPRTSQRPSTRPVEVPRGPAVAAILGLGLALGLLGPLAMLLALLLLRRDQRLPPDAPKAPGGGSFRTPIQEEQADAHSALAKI


What was measured:
[1] = molecular target: T1, Fc gamma receptor RIIA R167; experiment: SPR, construct immobilized, receptor injected at 2 uM
Protocol: (§1) Fcγ receptor binding to bispecific proteins was measured by Surface Plasmon Resonance on a Biacore 8K instrument at room temperature. Bispecific proteins with modified Fc regions to reduce binding to Fcγ receptors were directly immobilized on the surface of a CM5 sensor chip to a surface density of 4000 RU. A bispecific ADAPTIR™ protein with a wild type Fc was similarly immobilized to the surface as a positive control and used as a comparator to evaluate the reduction in binding resulting from changes incorporated into the Fc region amino acid sequence. Fcγ receptors (purchased from R&D Systems) were diluted to either 100 nM (FcγRI) or 2 μM (all other Fcγ receptors) in HBS-EP+ buffer before injecting over the surface of the prepared sensor chip at 30 μL/min for 60 seconds. Maximum RU values during association phase of each injection were used to compare the extent of binding of the modified Fc to wild type value and are reported in Table 17 below.

Fc gamma receptor RIIB/C = molecular target: T2, Fc gamma receptor RIIB/C; experiment: as above
Protocol: as §1

[2] = molecular target: T3, Fc gamma receptor RIIA H167; experiment: as above
Protocol: as §1

Full-length Human 4-1BB [3] = molecular target: T7, Full-length Human 4-1BB (human, UniProt Q07011 24-255); experiment: flow cytometry, Jurkat cells expressing human 4-1BB
T7 construct: also called FOB005; CD137

Full-length Human 4-1BB [4] = molecular target: T7, Full-length Human 4-1BB; experiment: cell-based or functional assay
Target sequence in this assay (Q07011 24-255): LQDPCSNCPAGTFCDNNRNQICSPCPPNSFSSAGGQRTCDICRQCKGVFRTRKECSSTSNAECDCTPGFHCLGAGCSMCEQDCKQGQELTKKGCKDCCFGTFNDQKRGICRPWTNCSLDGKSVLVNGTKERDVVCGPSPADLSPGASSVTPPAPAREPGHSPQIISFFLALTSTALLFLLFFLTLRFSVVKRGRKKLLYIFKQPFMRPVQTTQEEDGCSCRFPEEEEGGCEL

Full-length Human OX40 [5] = molecular target: T4, Full-length Human OX40; experiment: cell-based or functional assay
Full-length Cyno 4-1BB = molecular target: T5, Full-length Cyno 4-1BB; experiment: flow cytometry on Jurkat cells transfected with cynomolgus 4-1BB, goat anti-human Fc secondary antibody, MFI (Mean)
Full-length Human OX40 [6] = molecular target: T4, Full-length Human OX40; experiment: flow cytometry, CHO cells expressing human OX40
Full-length Cyno OX40 = molecular target: T6, Full-length Cyno OX40; experiment: flow cytometry on CHOK1SV cells transfected with cynomolgus OX40, goat anti-human Fc secondary antibody, MFI (Mean)
Wherever 4-1BB Reporter Assay Max induction is given: unit not given here.
Wherever OX40 Reporter Assay Max induction is given: unit not given here.

| Max RU value during association [1] | Max RU value during association (Fc gamma receptor RIIB/C) | Max RU value during association [2] | EC50 (Full-length Human 4-1BB [3]) | max MFI (Full-length Human 4-1BB [3]) | 4-1BB Reporter Assay EC50 (Full-length Human 4-1BB [4]) | 4-1BB Reporter Assay Max induction (Full-length Human 4-1BB [4]) | OX40 Reporter Assay EC50 (Full-length Human OX40 [5]) | OX40 Reporter Assay Max induction (Full-length Human OX40 [5]) | EC50 (read off the curve) (Full-length Cyno 4-1BB) | EC50 (Full-length Human OX40 [6]) | max MFI (Full-length Human OX40 [6]) | EC50 (read off the curve) (Full-length Cyno OX40) | Binder |
| --- | --- | --- | --- | --- | --- | --- | --- | --- | --- | --- | --- | --- | --- |
| 94 RU | 21 RU | 14 RU | 0.25 nM | 4850 MFI | 0.019 nM | 6.96e+06 | 0.011 nM | 2.03e+06 | ~0.3 nM | 0.31 nM | 10500 MFI | ~0.8 nM | FXX01101 (bispecific antibody, ADAPTIR anti-4-1BB (HL) x anti-OX40 with T86R; PAA (del) Fc; also called FX01101) EVQLVQSGAEVKKPGASVKVSCKASGYTFTSYWMNWVRQAPGQGLEWMGNIYPSGGSTNYAQKFQGRVTMTVDTSTSTVYMELSSLRSEDTAVYYCASFSDGYYAYAMDYWGQGTLVTVSSGGGGSGGGGSGGGGSGGGGSEIVMTQSPATLSLSPGERATLSCRASQSVSSYLNWYQQKPGQAPRLLIYYASRRHTGIPARFSGSGSGTDFTLTISSLQPEDFAVYYCQQGYNLPYTFGQGTKVEIKEPKSSDKTHTCPPCPAPPAAAPSVFLFPPKPKDTLMISRTPEVTCVVVDVSHEDPEVKFNWYVDGVEVHNAKTKPREEQYNSTYRVVSVLTVLHQDWLNGKEYKCAVSNKALPAPIEKTISKAKGQPREPQVYTLPPSRDELTKNQVSLTCLVKGFYPSDIAVEWESNGQPENNYKTTPPVLDSDGSFFLYSKLTVDKSRWQQGNVFSCSVMHEALHNHYTQKSLSLSPGGGGSPSSYVLTQPPSVSVAPGQTARITCGGNNIGSKSVNWFQQKPGQAPVLVVYDDSGRPSGIPERFSGSTSGNTATLTISRVEAGDEADYYCQVWDSSSDHVVFGGGTKLTVLGGGGSGGGGSGGGGSGGGGSQVQLVESGGGVVQPGRSLRLSCAASGFTLSYYGMHWVRQAPGKGLEWVAAISHDGSDKYYADSVKGRFTISRDNSKNRLYLQMNSLRAEDTAVYYCSNDQFDPWGQGTLVTVSSR |
| 88 RU | 19 RU | 13 RU | 0.18 nM | 4850 MFI | 0.014 nM | 6.94e+06 | 0.01 nM | 2.05e+06 | ~0.3 nM | 0.34 nM | 10500 MFI | ~0.8 nM | FXX01102 (bispecific antibody, ADAPTIR anti-4-1BB (HL) x anti-OX40 with Q17K and T86R; PAA (del) Fc; also called FX01102) EVQLVQSGAEVKKPGASVKVSCKASGYTFTSYWMNWVRQAPGQGLEWMGNIYPSGGSTNYAQKFQGRVTMTVDTSTSTVYMELSSLRSEDTAVYYCASFSDGYYAYAMDYWGQGTLVTVSSGGGGSGGGGSGGGGSGGGGSEIVMTQSPATLSLSPGERATLSCRASQSVSSYLNWYQQKPGQAPRLLIYYASRRHTGIPARFSGSGSGTDFTLTISSLQPEDFAVYYCQQGYNLPYTFGQGTKVEIKEPKSSDKTHTCPPCPAPPAAAPSVFLFPPKPKDTLMISRTPEVTCVVVDVSHEDPEVKFNWYVDGVEVHNAKTKPREEQYNSTYRVVSVLTVLHQDWLNGKEYKCAVSNKALPAPIEKTISKAKGQPREPQVYTLPPSRDELTKNQVSLTCLVKGFYPSDIAVEWESNGQPENNYKTTPPVLDSDGSFFLYSKLTVDKSRWQQGNVFSCSVMHEALHNHYTQKSLSLSPGGGGSPSSYVLTQPPSVSVAPGKTARITCGGNNIGSKSVNWFQQKPGQAPVLVVYDDSGRPSGIPERFSGSTSGNTATLTISRVEAGDEADYYCQVWDSSSDHVVFGGGTKLTVLGGGGSGGGGSGGGGSGGGGSQVQLVESGGGVVQPGRSLRLSCAASGFTLSYYGMHWVRQAPGKGLEWVAAISHDGSDKYYADSVKGRFTISRDNSKNRLYLQMNSLRAEDTAVYYCSNDQFDPWGQGTLVTVSSR |
